Source: patent US20110263454A1, “Methods of Identifying Functional Characteristics of Promoters, Transcription Modifying Proteins and Transcription Modulating Agents” (Salk Institute for Biological Studies, priority 2008, published 2011)

B1: RARg: Retinoic acid receptor γ (NR1B3), nuclear hormone receptor cDNA driver (protein, UniProt P13631 1-454, looked up)
Retinoic acid receptor gamma: MATNKERLFAAGALGPGSGYPGAGFPFAFPGALRGSPPFEMLSPSFRGLGQPDLPKEMASLSVETQSTSSEEMVPSSPSPPPPPRVYKPCFVCNDKSSGYHYGVSSCEGCKGFFRRSIQKNMVYTCHRDKNCIINKVTRNRCQYCRLQKCFEVGMSKEAVRNDRNKKKKEVKEEGSPDSYELSPQLEELITKVSKAHQETFPSLCQLGKYTTNSSADHRVQLDLGLWDKFSELATKCIIKIVEFAKRLPGFTGLSIADQITLLKAACLDILMLRICTRYTPEQDTMTFSDGLTLNRTQMHNAGFGPLTDLVFAFAGQLLPLEMDDTETGLLSAICLICGDRMDLEEPEKVDKLQEPLLEALRLYARRRRPSQPYMFPRMLMKITDLRGISTKGAERAITLKMEIPGPMPPLIREMLENPEMFEDDSSQPGPHPNASSEDEVPGGQGKGGLKSPA
B2: RARb: Retinoic acid receptor β (NR1B2), nuclear hormone receptor cDNA driver (protein, UniProt P10826 1-455, looked up)
Retinoic acid receptor beta: MTTSGHACPVPAVNGHMTHYPATPYPLLFPPVIGGLSLPPLHGLHGHPPPSGCSTPSPATIETQSTSSEELVPSPPSPLPPPRVYKPCFVCQDKSSGYHYGVSACEGCKGFFRRSIQKNMIYTCHRDKNCVINKVTRNRCQYCRLQKCFEVGMSKESVRNDRNKKKKETSKQECTESYEMTAELDDLTEKIRKAHQETFPSLCQLGKYTTNSSADHRVRLDLGLWDKFSELATKCIIKIVEFAKRLPGFTGLTIADQITLLKAACLDILILRICTRYTPEQDTMTFSDGLTLNRTQMHNAGFGPLTDLVFTFANQLLPLEMDDTETGLLSAICLICGDRQDLEEPTKVDKLQEPLLEALKIYIRKRRPSKPHMFPKILMKITDLRSISAKGAERVITLKMEIPGSMPPLIQEMLENSEGHEPLTPSSSGNTAEHSPSISPSSVENSGVSQSPLVQ
B3: CAR: Constitutive Androstane Receptor (NR1I3), cDNA driver (protein, UniProt Q14994 1-352, looked up)
Nuclear receptor subfamily 1 …: MASREDELRNCVVCGDQATGYHFNALTCEGCKGFFRRTVSKSIGPTCPFAGSCEVSKTQRRHCPACRLQKCLDAGMRKDMILSAEALALRRAKQAQRRAQQTPVQLSKEQEELIRTLLGAHTRHMGTMFEQFVQFRPPAHLFIHHQPLPTLAPVLPLVTHFADINTFMVLQVIKFTKDLPVFRSLPIEDQISLLKGAAVEICHIVLNTTFCLQTQNFLCGPLRYTIEDGARVSPTVGFQVEFLELLFHFHGTLRKLQLQEPEYVLLAAMALFSPDRPGVTQRDEIDQLQEEMALTLQSYIKGQQRRPRDRFLYAKLLGLLAELRSINEAYGYQIQHIQGLSAMMPLLQEICS
B4: RARa: Retinoic acid receptor α (NR1B1), nuclear hormone receptor cDNA driver (protein, UniProt P10276 1-462, looked up)
Retinoic acid receptor alpha: MASNSSSCPTPGGGHLNGYPVPPYAFFFPPMLGGLSPPGALTTLQHQLPVSGYSTPSPATIETQSSSSEEIVPSPPSPPPLPRIYKPCFVCQDKSSGYHYGVSACEGCKGFFRRSIQKNMVYTCHRDKNCIINKVTRNRCQYCRLQKCFEVGMSKESVRNDRNKKKKEVPKPECSESYTLTPEVGELIEKVRKAHQETFPALCQLGKYTTNNSSEQRVSLDIDLWDKFSELSTKCIIKTVEFAKQLPGFTTLTIADQITLLKAACLDILILRICTRYTPEQDTMTFSDGLTLNRTQMHNAGFGPLTDLVFAFANQLLPLEMDDAETGLLSAICLICGDRQDLEQPDRVDMLQEPLLEALKVYVRKRRPSRPHMFPKMLMKITDLRSISAKGAERVITLKMEIPGSMPPLIQEMLENSEGLDTLSGQPGGGGRDGGGLAPPPGSCSPSLSPSSNRSSPATHSP
B5: PPARd: Peroxisome proliferator activated receptor δ (NR1C2), cDNA driver (protein, UniProt Q03181 1-441, looked up)
Peroxisome …: MEQPQEEAPEVREEEEKEEVAEAEGAPELNGGPQHALPSSSYTDLSRSSSPPSLLDQLQMGCDGASCGSLNMECRVCGDKASGFHYGVHACEGCKGFFRRTIRMKLEYEKCERSCKIQKKNRNKCQYCRFQKCLALGMSHNAIRFGRMPEAEKRKLVAGLTANEGSQYNPQVADLKAFSKHIYNAYLKNFNMTKKKARSILTGKASHTAPFVIHDIETLWQAEKGLVWKQLVNGLPPYKEISVHVFYRCQCTTVETVRELTEFAKSIPSFSSLFLNDQVTLLKYGVHEAIFAMLASIVNKDGLLVANGSGFVTREFLRSLRKPFSDIIEPKFEFAVKFNALELDDSDLALFIAAIILCGDRPGLMNVPRVEAIQDTILRALEFHLQANHPDAQYLFPKLLQKMADLRQLVTEHAQMMQRIKKTETETSLHPLLQEIYKDMY
B6: FXR: Farnesoid X Receptor (NR1H4), cDNA driver (protein, UniProt Q96RI1 1-486, looked up)
Bile acid receptor: MVMQFQGLENPIQISPHCSCTPSGFFMEMMSMKPAKGVLTEQVAGPLGQNLEVEPYSQYSNVQFPQVQPQISSSSYYSNLGFYPQQPEEWYSPGIYELRRMPAETLYQGETEVAEMPVTKKPRMGASAGRIKGDELCVVCGDRASGYHYNALTCEGCKGFFRRSITKNAVYKCKNGGNCVMDMYMRRKCQECRLRKCKEMGMLAECMYTGLLTEIQCKSKRLRKNVKQHADQTVNEDSEGRDLRQVTSTTKSCREKTELTPDQQTLLHFIMDSYNKQRMPQEITNKILKEEFSAEENFLILTEMATNHVQVLVEFTKKLPGFQTLDHEDQIALLKGSAVEAMFLRSAEIFNKKLPSGHSDLLEERIRNSGISDEYITPMFSFYKSIGELKMTQEEYALLTAIVILSPDRQYIKDREAVEKLQEPLLDVLQKLCKIHQPENPQHFACLLGRLTELRTFNHHHAEMLMSWRVNDHKFTPLLCEIWDVQ
B7: PXR: Pregnane X Receptor (NR1I2), cDNA driver (protein, UniProt O75469 1-434, looked up)
Nuclear receptor subfamily 1 …: MEVRPKESWNHADFVHCEDTESVPGKPSVNADEEVGGPQICRVCGDKATGYHFNVMTCEGCKGFFRRAMKRNARLRCPFRKGACEITRKTRRQCQACRLRKCLESGMKKEMIMSDEAVEERRALIKRKKSERTGTQPLGVQGLTEEQRMMIRELMDAQMKTFDTTFSHFKNFRLPGVLSSGCELPESLQAPSREEAAKWSQVRKDLCSLKVSLQLRGEDGSVWNYKPPADSGGKEIFSLLPHMADMSTYMFKGIISFAKVISYFRDLPIEDQISLLKGAAFELCQLRFNTVFNAETGTWECGRLSYCLEDTAGGFQQLLLEPMLKFHYMLKKLQLHEEEYVLMQAISLFSPDRPGVLQHRVVDQLQEQFAITLKSYIECNRPQPAHRFLFLKIMAMLTELRSINAQHTQRLLRIQDIHPFATPLMQELFGITGS

Each molecule was assayed on hIRF7 promoter (assay: NHR-promoter luciferase screen, hIRF7 promoter). Settings: IRF7 promoter reporter; HR without or with its ligand; relative to control.
Assay type: cell-based, human
Procedure: (§1) The use, feasibility, and reproducibility of the functional NHR-promoter screen in a 48-well format have been tested validated. Briefly, there were co-expressed 50 ng of each NHR/NHR homodimer or NHR/RXR heterodimer with 100 ng promoter/luciferase construct and 50 ng of LacZ (as a control for transfection efficiency) in CV-1 cells using Fugene HD (Roche) as a transfection reagent (alternatively or additionally, a CMV-YFP construct can be used as a transfection control). Each of the nuclear hormone receptors that were used in these experiments was cloned into a pcDNA3.1 vector and comprised a C-terminally linked V5H6 tag. Twenty-four hours after transfection, appropriate ligands were added, where applicable, (see Table 5 for various ligands and concentrations and after 48 hrs, samples were assayed for luciferase and LacZ activity. To measure for luciferase activity 15 ul of sample was added to 30 ul of luciferase buffer (20 mM tricine, 1.07 mM MgCarbonate, 2.67 mM MgSulfate, 0.1 mM Naz-EDTA, 5 mM DTT, 5 mM ATP, 0.15 mg/ml CoA, 0.5 mM Luciferin), mixed briefly, and run in a Perkin Elmer Victor 5 luminometer. Thus, the functional NHR-promoter screen was used to observe the transcriptional activity of 29 promoters from various physiological pathways including inflammation, lipid and sugar metabolism, cholesterol transport, xenobiotic metabolism, and circadian rhythm.
(§2) The promoters that facilitate transcription of the indicated gene products that were tested using the protocols described herein are listed in the first row of the table. The nuclear hormone receptors and, where applicable, ligands that were assayed for their transcriptional effects on the promoters are listed in the first column of the table. The data represent the luciferase activity of each sample normalized to both the lacZ activity of that sample and to a control, e.g., no NHR or ligand, as customary in the art. As described previously, these normalizations allow the transcriptional activity of each reporter cell to be compared to other samples.
(§3) Tables 7-40 show the transcriptional effects of the hormone receptors, and, where applicable, ligands (orphan receptors are screened without ligand), on each individual promoter. […] The control data of each table are shown in their last rows.
For B1, the “Normalized Luc. act., normalized to control” value was 1.8.
In the case of B2, the “Normalized Luc. act., normalized to control” value is reported as 1.8.
With B3 the “Normalized Luc. act., normalized to control” value was 1.4.
For B4, the “Normalized Luc. act., normalized to control” value was 1.5.
For B5, the “Normalized Luc. act., normalized to control” value was 1.3.
B6 was tested, and the “Normalized Luc. act., normalized to control” value was 1.6.
For B7, the “Normalized Luc. act., normalized to control” value was 1.4.

Same assay, conditions: IRF7 promoter reporter; hormone receptor (HR) without or with its ligand
For B1, the “Luc. act., normalized to lacZ” value was 47.5.
With B2 the “Luc. act., normalized to lacZ” value was 47.2.
For B3, the “Luc. act., normalized to lacZ” value was 37.3.
With B4 the “Luc. act., normalized to lacZ” value was 40.6.
B5 was tested, and the “Luc. act., normalized to lacZ” value was 33.6.
With B6 the “Luc. act., normalized to lacZ” value was 41.8.
B7 was tested, and the “Luc. act., normalized to lacZ” value was 36.3.

Same assay, conditions: transcription factor +/- ligand; control = 1.00
For B1, the “hIRF7 promoter reporter activity” value was 1.80.
With B2 the “hIRF7 promoter reporter activity” value was 1.79.
In the case of B3, the “hIRF7 promoter reporter activity” value is reported as 1.42.
With B4 the “hIRF7 promoter reporter activity” value was 1.54.
In the case of B5, the “hIRF7 promoter reporter activity” value is reported as 1.27.
B6 was tested, and the “hIRF7 promoter reporter activity” value was 1.59.
With B7 the “hIRF7 promoter reporter activity” value was 1.38.

What follows are molecules tested on SREBP1c promoter (assay: NHR-promoter luciferase screen, SREBP1c promoter). Settings: SREBP1c promoter; HR component without or with ligand.
Assay type: cell-based, mouse
Procedure: as §1, §2, §3
In the case of B1, the “Luc. act., normalized to lacZ” value is reported as 1052.4 and the “Normalized Luc. act., normalized to control” value is reported as 3.3.
B2 was tested, and the “Luc. act., normalized to lacZ” value was 1056.4 and the “Normalized Luc. act., normalized to control” value was 3.3.
B3 was tested, and the “Luc. act., normalized to lacZ” value was 312.9 and the “Normalized Luc. act., normalized to control” value was 1.0.
B4 was tested, and the “Luc. act., normalized to lacZ” value was 854.2 and the “Normalized Luc. act., normalized to control” value was 2.7.
For B5, the “Luc. act., normalized to lacZ” value was 658.7 and the “Normalized Luc. act., normalized to control” value was 2.0.
With B6 the “Luc. act., normalized to lacZ” value was 551.0 and the “Normalized Luc. act., normalized to control” value was 1.7.
B7 was tested, and the “Luc. act., normalized to lacZ” value was 486.8 and the “Normalized Luc. act., normalized to control” value was 1.5.

Same assay, conditions: transcription factor +/- ligand; control = 1.00
B1 was tested, and the “mSREBP1-c promoter reporter activity” value was 3.27.
In the case of B2, the “mSREBP1-c promoter reporter activity” value is reported as 3.28.
B3 was tested, and the “mSREBP1-c promoter reporter activity” value was 0.97.
With B4 the “mSREBP1-c promoter reporter activity” value was 2.65.
For B5, the “mSREBP1-c promoter reporter activity” value was 2.04.
In the case of B6, the “mSREBP1-c promoter reporter activity” value is reported as 1.71.
For B7, the “mSREBP1-c promoter reporter activity” value was 1.51.

Each molecule was assayed on mADRP promoter (assay: NHR-promoter luciferase screen, mADRP promoter). Settings: ADRP promoter; HR/ligand component.
Assay type: cell-based, mouse
Procedure: as §1, §2, §3
With B1 the “Luc. act., normalized to lacZ” value was 765.4 and the “Normalized Luc. act., normalized to control” value was 1.5.
For B2, the “Luc. act., normalized to lacZ” value was 799.4 and the “Normalized Luc. act., normalized to control” value was 1.6.
In the case of B3, the “Luc. act., normalized to lacZ” value is reported as 623.0 and the “Normalized Luc. act., normalized to control” value is reported as 1.3.
In the case of B4, the “Luc. act., normalized to lacZ” value is reported as 628.8 and the “Normalized Luc. act., normalized to control” value is reported as 1.3.
For B5, the “Luc. act., normalized to lacZ” value was 694.0 and the “Normalized Luc. act., normalized to control” value was 1.4.
In the case of B6, the “Luc. act., normalized to lacZ” value is reported as 658.3 and the “Normalized Luc. act., normalized to control” value is reported as 1.3.
B7 was tested, and the “Luc. act., normalized to lacZ” value was 1021.2 and the “Normalized Luc. act., normalized to control” value was 2.1.

Same assay, conditions: transcription factor +/- ligand; control = 1.00
B1 was tested, and the “mADRP promoter reporter activity” value was 1.54.
B2 was tested, and the “mADRP promoter reporter activity” value was 1.61.
In the case of B3, the “mADRP promoter reporter activity” value is reported as 1.25.
For B4, the “mADRP promoter reporter activity” value was 1.26.
In the case of B5, the “mADRP promoter reporter activity” value is reported as 1.39.
B6 was tested, and the “mADRP promoter reporter activity” value was 1.32.
In the case of B7, the “mADRP promoter reporter activity” value is reported as 2.05.
